Reference: article PMC2199621 (The Journal of Cell Biology, 2001)

What was measured:
[1] = molecular target: importin β–IBB domain complex (UniProt Q14974 1-876; P52292 2-60); assay: ELISA
[2] = molecular target: 6× his-S–tagged importin β (UniProt Q14974 1-876); assay: ELISA
Sequence of 6× his-S–tagged importin β (Q14974 whole entry): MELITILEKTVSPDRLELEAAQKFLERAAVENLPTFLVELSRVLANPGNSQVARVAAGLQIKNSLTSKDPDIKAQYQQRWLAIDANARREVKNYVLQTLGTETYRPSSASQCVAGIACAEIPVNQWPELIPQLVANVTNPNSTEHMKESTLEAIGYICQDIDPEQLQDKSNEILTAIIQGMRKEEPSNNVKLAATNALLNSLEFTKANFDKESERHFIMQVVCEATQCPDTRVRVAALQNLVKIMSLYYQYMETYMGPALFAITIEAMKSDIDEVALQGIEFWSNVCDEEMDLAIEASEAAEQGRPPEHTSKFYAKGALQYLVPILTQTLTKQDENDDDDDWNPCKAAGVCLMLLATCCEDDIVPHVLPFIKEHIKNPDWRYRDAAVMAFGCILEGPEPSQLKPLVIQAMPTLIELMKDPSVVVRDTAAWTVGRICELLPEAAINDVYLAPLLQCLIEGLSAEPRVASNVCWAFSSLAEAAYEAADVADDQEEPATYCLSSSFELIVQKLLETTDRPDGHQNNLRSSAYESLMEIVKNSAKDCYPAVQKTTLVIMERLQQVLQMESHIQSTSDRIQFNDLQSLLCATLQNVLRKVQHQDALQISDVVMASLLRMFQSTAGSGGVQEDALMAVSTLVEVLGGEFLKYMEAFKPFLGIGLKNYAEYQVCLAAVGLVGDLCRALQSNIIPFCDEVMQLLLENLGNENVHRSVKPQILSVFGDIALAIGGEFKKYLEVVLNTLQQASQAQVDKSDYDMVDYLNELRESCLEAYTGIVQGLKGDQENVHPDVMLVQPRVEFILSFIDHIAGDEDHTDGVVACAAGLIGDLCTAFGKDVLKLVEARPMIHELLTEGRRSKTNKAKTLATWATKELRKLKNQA

Sequence of importin β–IBB domain complex (Q14974 whole entry, chain 1 of 2, other chains not shown, the tested form may be a part): as the sequence (Q14974 whole entry) above

| Kd [1] [nM] | Kd [2] [nM] | Binder |
| --- | --- | --- |
| 220 ± 16 | 225 ± 14.4 | Nup358-4 (amino acids 2500–3224) (domain or fragment, UniProt P49792 2500-3224, looked up) TSETTPKAVVSPPKFVFGSESVKSIFSSEKSKPFAFGNSSATGSLFGFSFNAPLKSNNSETSSVAQSGSESKVEPKKCELSKNSDIEQSSDSKVKNLFASFPTEESSINYTFKTPEKAKEKKKPEDSPSDDDVLIVYELTPTAEQKALATKLKLPPTFFCYKNRPDYVSEEEEDDEDFETAVKKLNGKLYLDGSEKCRPLEENTADNEKECIIVWEKKPTVEEKAKADTLKLPPTFFCGVCSDTDEDNGNGEDFQSELQKVQEAQKSQTEEITSTTDSVYTGGTEVMVPSFCKSEEPDSITKSISSPSVSSETMDKPVDLSTRKEIDTDSTSQGESKIVSFGFGSSTGLSFADLASSNSGDFAFGSKDKNFQWANTGAAVFGTQSVGTQSAGKVGEDEDGSDEEVVHNEDIHFEPIVSLPEVEVKSGEEDEEILFKERAKLYRWDRDVSQWKERGVGDIKILWHTMKNYYRILMRRDQVFKVCANHVITKTMELKPLNVSNNALVWTASDYADGEAKVEQLAVRFKTKEVADCFKKTFEECQQNLMKLQKGHVSLAAELSKETNPVVFFDVCADGEPLGRITMELFSNIVPRTAENFRALCTGEKGFGFKNSIFHRVIPDFVCQGGDITKHDGTGGQSIYGDKFEDENFDVKHTGPGLLSMANQGQNTNNSQFVITLKKAEHLDFKHVVFGFVKDGMDTVKKIESFGSPKGSVCRRITITECGQI |
| 105 ± 6 | 100 ± 8 | GST-tagged Nup62 (natural protein, UniProt P17955 1-525, looked up) MSGFNFGGTGAPAGGFTFGTAKTATTTPATGFSFSASGTGTGGFNFGTPSQPAATTPSTSLFSLATQTSTTQTPGFNFGTTPASGGTGFSLGISTPKLSLSSTAATPATANTGSFGLGSSTLTNAISGASTSSQGTAPTGFVFGSSTTSAPSTGTTGFSFTSGSASQPGASGFNIGSVGSLAQPTALSGSPFTPATLATTTAGATQPAAATPTAATTSAGSTLFASIAAAPASSSTTVLSLSAPATTAATPTAGTLGFSLKAPGAAPGASTTSTTTTTTTTTTTASTSSSTTTTGFALSLKPLVPAGPSSVAATALPASSTAVGTTTGPAMTYAQLESLINKWSLELEDQERHFLQQATQVNAWDRTLIENGEKITSLHREVEKVKLDQKRLDQELDFILSQQKELEDLLSPLEESVKEQSGTIYLQHADEEREKTYKLAENIDAQLKRMAQDLKDIIEHLNMAGGPADTSDPLQQICKILNAHMDSLQWVDQSSALLQRRVEEASRVCESRRKEQERSLRIAFD |
| 108 ± 8.5 | 112 ± 6.5 | GST-tagged Nup54 (natural protein, UniProt P70582 1-510, looked up) MAFNFGAPSGTSGTSTATAAPAGGFGGFGTTTTTAGSAFSFSAPTNTGSTGLLGGTQNKGFGFGTGFGTSTGTGTGLGTGLGTGLGFGGFNTQQQQQQQQTSLGGLFSQPAQAPAQSNQLINTASALSAPTLLGDERDAILAKWNQLQAFWGTGKGYFNNNIPPVEFTQENPFCRFKAVGYSCMPNNKDEDGLVVLIFNKKETDIRSQQQQLVESLHKVLGGNQTLTVNVEGIKTLPDDQTEVVIYIVERSPNGTSRRVPATTLYAHFEQANIKTQLQQLGVTLSMTRTELSPAQIKQLLQNPPAGVDPIIWEQAKVDNPDSEKLIPVPMVGFKELLRRLKVQDQMTKQHQTRLDIISEDISELQKNQTTTMAKIAQYKRKLMDLSHRTLQVLIKQEIQRKSGYAIQAEEEQLRVQLDTIQGELNAPTQFKGRLNELMSQIRMQNHFGAVKSEEKYYIDADLLREIKQHLKQQQEGLSHLISIIKDDLEDIKLVEHGLNETIHSRGGVFS |
| 107 ± 8 | 101 ± 2 | GST-tagged Nup58 (natural protein, UniProt P70581 1-585, looked up) MATGFSFGSGTLGSTTVAPGGTGTGSGFSFGASSTPSVGLNFGTLGSSATPASTSTSASGFGTGLFGSKPGTGFTLGGTSAGTTATTSASTTGFSLGFSKPAASATPFALPVTSTTASGLTLSSALTSAPAASTGFTLNNLGATPATTTAASTGLSLGGALAGLGGSLFQSGNTATSGLGQNALSLSLGTATPTSAASSEGLGGIDFSTSSDKKSDKTGTRPEDSKALKDENLPPVICQDVENLQKFVKEQKQVQEEISRMSSKAMLKVQEDIKALKQLLSLAASGLQRNTLNIDKLKLETAQELKNAEIALRTQKTPPGLQHENTAPADYFRVLVQQFEVQLQQYRQQIEELENHLATQANNSHITPQDLSMAMQKIYQTFVALAAQLQSIHENVKVLKEQYLSYRKMFLGDAGDVFEARRTEAKKWQNAPRVTTGPTPFSTMPNAAAVAMAATLTQQQQPATGPQPSLGVSFGTPFGSGIGTGLQSSGLGSSNLGGFGTSSGFGCGTTGASTFGFGTTDKPSGSLSAGFGSSSTSGFNFSNPGITASAGLTFGVSNPASAGFGTGGQLLQLKRPPAGNKRGKR |
| 9.4 ± 3 | 9 ± 2.5 | 6× his–tagged COOH-terminal segment of human Nup153 comprising amino acids 609–1475 (domain or fragment, UniProt P49790 609-1475, looked up) LDILKSPGFASPKIDSVAAQPTATSPVVYTRPAISSFSSSGIGFGESLKAGSSWQCDTCLLQNKVTDNKCIACQAAKLSPRDTAKQTGIETPNKSGKTTLSASGTGFGDKFKPVIGTWDCDTCLVQNKPEAIKCVACETPKPGTCVKRALTLTVVSESAETMTASSSSCTVTTGTLGFGDKFKRPIGSWECSVCCVSNNAEDNKCVSCMSEKPGSSVPASSSSTVPVSLPSGGSLGLEKFKKPEGSWDCELCLVQNKADSTKCLACESAKPGTKSGFKGFDTSSSSSNSAASSSFKFGVSSSSSGPSQTLTSTGNFKFGDQGGFKIGVSSDSGSINPMSEGFKFSKPIGDFKFGVSSESKPEEVKKDSKNDNFKFGLSSGLSNPVSLTPFQFGVSNLGQEEKKEELPKSSSAGFSFGTGVINSTPAPANTIVTSENKSSFNLGTIETKSASVAPFTCKTSEAKKEEMPATKGGFSFGNVEPASLPSASVFVLGRTEEKQQEPVTSTSLVFGKKADNEEPKCQPVFSFGNSEQTKDENSSKSTFSFSMTKPSEKESEQPAKATFAFGAQTSTTADQGAAKPVFSFLNNSSSSSSTPATSAGGGIFGSSTSSSNPPVATFVFGQSSNPVSSSAFGNTAESSTSQSLLFSQDSKLATTSSTGTAVTPFVFGPGASSNNTTTSGFGFGATTTSSSAGSSFVFGTGPSAPSASPAFGANQTPTFGQSQGASQPNPPGFGSISSSTALFPTGSQPAPPTFGTVSSSSQPPVFGQQPSQSAFGSGTTPNSSSAFQFGSSTTNFNFTNNSPSGVFTFGANSSTPAASAQPSGSGGFPFNQSPAAFTVGSNGKNVFSSSGTSFSGRKIKTAVRRRK |
